Test results published in article PMC12734981, “A CALB-like Cold-Active Lipolytic Enzyme from Pseudonocardia antarctica: Expression, Biochemical Characterization, and AlphaFold-Guided Dynamics” (Marine Drugs, 2025).

Columns and labels:
[1] = substrate: CC(=O)Oc1ccc([N+](=O)[O-])cc1; assay: p-nitrophenol release, initial rates, nonlinear Michaelis-Menten fit; assay type: biochemical, Pseudonocardia alni; conditions: 100 mM Tris-HCl pH 7.4, 100 mM NaCl, 25 °C
[2] = substrate: CCCC(=O)Oc1ccc([N+](=O)[O-])cc1; assay: as above; assay type: biochemical, Pseudonocardia alni; conditions: 100 mM Tris-HCl pH 7.4, 100 mM NaCl, 25 °C

B1: PanLipΔN (Pseudonocardia alni) (protein)
chain: TLPDETFGPVDRPGPALSVPPDQLDAAVRCSANATDADRDVALFVPGTTLTPEVNFGFNWFAALDDLGRPYCSVTLPNNAMTDTQIAAEYVVHAIRHVHGISGRKVDVLGHSQGGTEPRFALRFWPDLRGMVDDYVAFGTTNHGSIAINAALCTPATGCAEALWQQTLNSHYTQAMNSYQETFAGISYTQIYTRTDEFVQPNLDDSGTTSLHGGGGEISNVALQDVCLTEAASEHIAVGTYSPVAYALATDALDHDGPADPARVDRGVCTQVFMPGVDPLTFPTDYAATLGLIANQLALAPRVGSEPELRPYTLADDRQG
notes: Signal peptide (30 residues) and proline-rich putative propeptide (27 residues) removed; ~first 57 residues missing (methods say first 27 of full-length); starts at TLPDE by primer; ends KQNLLE; pET-28a(+) NdeI/XhoI, His tag; codon-optimized; E. coli SHuffle T7 Express; Ni-NTA purified; Precursor length printed as both 324 and 377 residues
[1]
  Km: 66.8 ± 18.5 µM
  kcat: 16.2 ± 1.8 s⁻¹
[2]
  Km: 2830 ± 1560 µM
  kcat: 9.7 ± 1.8 s⁻¹
